The conditions of the series: Equus caballus; pH 7; 10 °C; GdnHCl; Fluorescence; Imidazole 50 mM.

“And” between values parts separate entries of the source, which are not always exact repeats. Identical values can stand only once.

Sequence of Cytochrome c wild type, P00004 (P00004 whole entry): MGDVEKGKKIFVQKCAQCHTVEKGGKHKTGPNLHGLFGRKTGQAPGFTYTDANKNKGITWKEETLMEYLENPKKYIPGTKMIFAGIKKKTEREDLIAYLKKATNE

As to Cytochrome c wild type, P00004, the denaturant m value was found to be 2.7 kcal/mol/M; the unfolding free energy is 8.1 kcal/mol and 7.8 kcal/mol.

Values taken from FireProtDB (doi:10.1021/bi982209j).
